{
  "source": "paper PMC12949252",
  "key": {"SEL1L-S658P-FLAG (mouse)": {"biological_target": "SEL1L-S658P-FLAG (mouse)", "test": "co-IP"}, "SEL1L-G585D-FLAG (mouse)": {"biological_target": "SEL1L-G585D-FLAG (mouse)", "test": "co-IP"}},
  "data": [
    {"molecule": "HRD1 (endogenous, HEK293T) (from UniProt Q86TM6 1-617) (enzyme)", "values": [
      {"measurement": "percent reduction of binding against WT", "setting": "SEL1L-S658P-FLAG (mouse)", "result": 70, "unit": "%"}
    ]},
    {"molecule": "OS9 (endogenous, HEK293T) (natural protein) GGVGSLNLEELSEMRYGIEILPLPVMGGQSQSSDVVIVSSKYKQRYECRLPAGAIHFQREREEETPAYQGPGIPELLSPMRDAPCLLKTKDWWTYEFCYGRHIQQYHMEDSEIKGEVLYLGYYQSAFDWDDETAKASKQHRLKRYHSQTYGNGSKCDLNGRPREAEVRFLCDEGAGISGDYIDRVDEPLSCSYVLTIRTPRLCPHPLLRPPPSAAPQAILCHPSLQPEEYMAYVQRQADSKQYGDKIIEELQDLGPQVWSETKSGVAPQKMAGASPTKDDSKDSDFWKMLNEPEDQAPGGEEVPAEEQDPSPEAADSASGAPNDFQNNVQVKVIRSPADLIRFIEELKGGTKKGKPNIGQEQPVDDAAEVPQREPEKERGDPERQREMEEEEDEDEDEDEDEDERQLLGEFEKELEGILLPSDRDRLRSEVKAGMERELENIIQETEKELDPDGLKKESERDRAMLALTSTLNKLIKRLEEKQSPELVKKHKKKRVVPKKPPPSPQPTEEDPEHRVRVRVTKLRLGGPNQDLTVLEMKRENPQLKQIEGLVKELLEREGLTAAGKIEIKIVRPWAEGTEEGARWLTDEDTRNLKEIFFNILVPGAEEAQKERQRQKELESNYRRVWGSPGGEGTGDLDEFDF", "values": [
      {"measurement": "percent reduction of binding against WT", "setting": "SEL1L-G585D-FLAG (mouse)", "result": 90, "unit": "%"}
    ]}
  ]
}
